Results on two molecules are retold here after publication PMC3978657, “Early Steps in Autophagy Depend on Direct Phosphorylation of Atg9 by the Atg1 Kinase” (Molecular Cell, 2014).

Changes are numbered by the printed parent chain.

The target of the experiment is T1, soluble Atg1 (Atg1 complex purified from yeast, released from the beads by TEV protease cleavage) (S. cerevisiae, UniProt P53104 1-897).
T1 construct: Atg1 serine-threonine kinase, S. cerevisiae; only Atg1 was detected (anti-Atg1 blot) in the pull-down; also called soluble Atg1 kinase; soluble Atg1 complex
T1 sequence (looked up): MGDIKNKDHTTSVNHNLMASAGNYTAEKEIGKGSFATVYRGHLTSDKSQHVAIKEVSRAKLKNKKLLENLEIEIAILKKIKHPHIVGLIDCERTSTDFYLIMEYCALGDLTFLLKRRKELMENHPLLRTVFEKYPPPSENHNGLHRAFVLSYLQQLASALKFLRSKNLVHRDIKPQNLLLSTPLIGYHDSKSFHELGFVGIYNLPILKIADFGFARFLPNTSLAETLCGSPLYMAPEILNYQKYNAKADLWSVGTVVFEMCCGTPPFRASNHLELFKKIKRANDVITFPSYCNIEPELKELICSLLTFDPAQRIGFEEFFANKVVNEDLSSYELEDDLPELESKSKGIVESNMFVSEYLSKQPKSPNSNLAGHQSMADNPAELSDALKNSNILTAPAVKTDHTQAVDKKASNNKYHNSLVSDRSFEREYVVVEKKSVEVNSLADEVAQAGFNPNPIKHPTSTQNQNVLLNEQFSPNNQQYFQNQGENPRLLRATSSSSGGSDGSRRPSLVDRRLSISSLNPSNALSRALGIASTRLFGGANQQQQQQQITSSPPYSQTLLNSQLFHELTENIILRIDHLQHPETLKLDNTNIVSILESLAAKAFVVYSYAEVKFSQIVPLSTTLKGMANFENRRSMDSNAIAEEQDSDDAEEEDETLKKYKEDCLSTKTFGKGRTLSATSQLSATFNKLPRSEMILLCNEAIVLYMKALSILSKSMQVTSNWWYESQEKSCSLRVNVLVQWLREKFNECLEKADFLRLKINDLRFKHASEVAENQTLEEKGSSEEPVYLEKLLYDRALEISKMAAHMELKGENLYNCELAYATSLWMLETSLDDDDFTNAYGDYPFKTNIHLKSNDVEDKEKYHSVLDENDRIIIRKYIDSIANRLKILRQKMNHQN
In words: pull-down; GST fusion proteins from E. coli immobilized on beads, incubated with soluble Atg1; bound protein by anti-Atg1 western blotting. The note with it: both partners purified. On the technique in general: A western blot detects proteins with antibodies after separation by electrophoresis.

B1: GST-Atg9^757–997 wild-type (domain or fragment, S. cerevisiae, UniProt Q12142 757-997, looked up)
chain: RENSEYVDGLGYVCKYAMFNMKNIDGEDTHSMDEDSLTKKIAVNGSHTLNSKRRSKFTAEDHSDKDLANNKMLQSYVYFMDDYSNSENLTGKYQLPAKKGYPNNEGDSFLNNKYSWRKQFQPGQKPELFRIGKHALGPGHNISPAIYSTRNPGKNWDNNNNGDDIKNGTNNATAKNDDNNGNNDHEYVLTESFLDSGAFPNHDVIDHNKMLNSNYNGNGILNKGGVLGLVKEYYKKSDVGR
notes: Atg9, S. cerevisiae, C-terminal fragment, amino acids 757-997; also called C-terminal fragment of Atg9 (amino acids 757–997); recombinant Atg9 C-terminal fragment; source: E. coli, immobilized on beads
On to B1, for which the binding result is listed as “binds”.

B2: GST-Atg9^757–997 4A mutant (domain or fragment, S. cerevisiae, UniProt Q12142 757-997, looked up)
chain: B1 chain with S46A, S75A, S192A, S213A
notes: Atg9, S. cerevisiae, C-terminal fragment, amino acids 757-997, 4A mutant; source: E. coli, immobilized on beads
Consider B2, for which the binding result is listed as “binds”.
